Measurements: patent US20210009693A1 (MABSPACE BIOSCIENCES SUZHOU, published 2021)

What was measured:
[1] = target: T1, Human PD-L1/CD274 with C-Fc Tag (hPD-L1-Fc) (human, UniProt Q9NZQ7 19-238); experiment: blocking ELISA on coated hPD-L1-Fc; blocked ligand: biotinylated hPD-1-Fc-N297A
T1 construct: range 19-238; ACRO Biosystem PD1-H5258, made in HEK293; also called human PD-L1-Fc; not shown: Fc fragment of human IgG1 at C-terminus
Experimental: High-binding clear polystyrene 96 well plates (Nunc) were coated with 100 μl/well of coating solution consisting of 0.5 μg/ml hPD-L1-Fc overnight at 4° C. Then washed once on an automatic plate washer using washing buffer PBS+0.1% Tween 20 (Sigma). 200 μl of blocking buffer (PBS+1% BSA+1% normal goat serum+0.05% Tween-20) was added to each well and incubated for 2 hours at room temperature. Then add serial diluted antibodies (from 10 μg/ml to 0.0006 μg/ml) with dilution buffer (PBS+1% BSA+1% normal goat serum+0.01% Tween-20) and incubate for 1 hour at RT. The plates were then washed 3 times using the method described above. […] After the plates were washed 3 times, 100 μl/well of a solution of HRP conjugated Neutravidin antibody (Pierce) diluted in dilution buffer was then added to each well of the plate. After that the ELISA plates were allowed to incubate for 60 min at RT then plates were washed 3 times with 250 μl/well washing buffer. Finally, 100 μl/well of TMB was added to each well and reaction was terminated using 0.64M H₂SO₄. The plates were read on a Thermo Multiscan FC at 450 nM (see FIG. 4A).

hPD-L2-Fc = target: T2, hPD-L2-Fc (human, UniProt Q9BQ51 20-219); experiment: ELISA, plate coated with hPD-L2-Fc
T2 construct: Acrobiosystems PD2-H5251; also called human PD-L2 protein; not shown: Fc tag
T2 sequence (looked up): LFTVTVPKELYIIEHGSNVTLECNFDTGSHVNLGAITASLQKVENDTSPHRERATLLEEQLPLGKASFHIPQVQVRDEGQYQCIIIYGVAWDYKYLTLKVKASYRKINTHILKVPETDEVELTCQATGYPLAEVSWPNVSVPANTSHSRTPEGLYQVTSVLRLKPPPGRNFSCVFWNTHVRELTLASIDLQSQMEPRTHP
Experimental: Briefly, high-binding clear polystyrene 96 well plates (Nunc) were coated with 100 μl/well of a 0.5 μg/ml human PD-L1-Fc (Acrobiosystems, Cat #PD1-H5258) or 100 μl/well of a 1 μg/ml hPD-L2-Fc (Acrobiosystems, Cat #PD2-H5251), respectively, in high pH coating buffer (0.16% Na2CO3+0.3% NaHCO₃, pH 9.8) and incubated overnight at 4° C. Then the plates were washed once on an automatic plate washer using washing buffer (PBS+0.1% Tween 20 (Amresco)). 200 μl of blocking buffer (PBS+1% BSA+1% normal goat serum+0.05% Tween-20) was added to each well and incubated for 2 hours at room temp. Then add 100 μl 2 μg/ml purified PD-L1 antibodies with dilution buffer (PBS+1% BSA+1% normal goat serum+0.01% Tween-20) and incubate for 1 hour at RT. The plates were then washed 3 times with washing buffer. 100 μl/well of a solution of HRP conjugated goat anti-mouse IgG antibody (1:20000, Abcam) in dilution buffer was then added to each well of the plate. After that the ELISA plates were allowed to incubate for 60 min at RT then the plates were washed 3 times with 250 μl/well washing buffer. Finally, 100 μl/well of TMB was added to each well for 15 min and the reaction was terminated using 50 ul/well of 0.16 M/L sulfuric acid. The plates were read on a Thermo Multiscan FC at 450 nM (see FIG. 6G).

[2] = target: T3, wild type human PD-L1-Fc protein (SEQ ID NO: 107) (human); experiment: ELISA on captured PD-L1-Fc, as in Example 18A
T3 construct: Extracellular human PD-L1 (amino acid 19-238) with Fc fragment of human IgG1, expressed in 293T cells and used as culture supernatant; also called WT PD-L1; wild-type PD-L1
T3 sequence (chain, as listed by the source limits assumed): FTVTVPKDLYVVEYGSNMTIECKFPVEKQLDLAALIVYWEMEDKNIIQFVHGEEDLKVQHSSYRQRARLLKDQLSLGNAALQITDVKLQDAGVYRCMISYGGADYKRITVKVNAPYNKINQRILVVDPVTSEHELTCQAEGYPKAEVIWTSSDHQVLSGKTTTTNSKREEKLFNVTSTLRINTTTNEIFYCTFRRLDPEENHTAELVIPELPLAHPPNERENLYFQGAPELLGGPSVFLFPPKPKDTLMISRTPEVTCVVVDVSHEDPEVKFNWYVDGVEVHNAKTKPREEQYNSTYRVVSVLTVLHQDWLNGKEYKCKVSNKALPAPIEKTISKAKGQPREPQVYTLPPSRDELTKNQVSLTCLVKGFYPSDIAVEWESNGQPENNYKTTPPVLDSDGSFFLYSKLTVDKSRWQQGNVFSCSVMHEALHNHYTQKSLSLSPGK

[3] = target: T4, human PD-L1-Fc mutant E58A (human); experiment: ELISA on captured PD-L1-Fc, as in Example 18A
T4 construct: Position 58 counts on native human PD-L1 (NP_054862.1); also called E58A mutant
T4 sequence (chain, as listed by the source E58A E58A limits assumed): as the sequence (chain, as listed by the source limits assumed) above, with E40A counted along it

[4] = target: T5, Recombinant Mouse PD-L1/CD274 Protein (mPD-L1-his) (mouse, UniProt Q9EP73 19-238); experiment: ELISA, 20 ug/ml antibody on coated mouse PD-L1 (his-tagged per text, mPD-L1-Fc per sheet title)
T5 construct: range 19-238; ACRO Biosystem PD1-M5220; also called mouse PD-L1-his
T5 sequence (Q9EP73 other isoform, or with tags, fused parts or gaps limits assumed): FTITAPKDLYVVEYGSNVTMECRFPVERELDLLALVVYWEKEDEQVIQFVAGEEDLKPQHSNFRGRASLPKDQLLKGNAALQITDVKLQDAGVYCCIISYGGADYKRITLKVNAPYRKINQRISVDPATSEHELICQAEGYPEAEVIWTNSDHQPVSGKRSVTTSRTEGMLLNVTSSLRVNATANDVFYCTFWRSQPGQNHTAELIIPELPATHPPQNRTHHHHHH
Experimental: High-binding clear polystyrene 96 well plates (Nunc) were coated with 100 μl/well of 1 μg/ml mouse PD-L1-his in high pH coating buffer and incubated overnight at 4° C. Then plates were washed once on an automatic plate washer using washing buffer (PBS+0.1% Tween 20 (Sigma)). 200 μl of blocking buffer (PBS+1% BSA+1% normal goat serum+0.05% Tween-20) was added to each well and incubated for 2 hours at room temp. Then add 20 μg/ml purified hybridoma mouse antibodies in dilution buffer (PBS+1% BSA+1% normal goat serum+0.01% Tween-20) and incubate for 1 hour at RT. The plates were then washed 3 times with 250 μl/well washing buffer. 100 μl/well of a solution of HRP conjugated goat anti-mouse Fc antibody (Abcam) in dilution buffer was then added to each well of the plate. After that the ELISA plates were allowed to incubate for 60 min at RT then plates were washed 3 times with 250 μl/well washing buffer. Finally, 100 μl/well of TMB was added to each well and the reaction was terminated using 0.64M H₂SO₄. The plates were read on a Thermo Multiscan FC at 450 nM (see FIG. 6F).

[5] = target: T6, Recombinant Human PD-L1/CD274 Protein (hPD-L1-his) (human, UniProt Q9NZQ7 19-238); experiment: ELISA, purified mouse antibody on coated hPD-L1-his
T6 construct: range 19-238; ACRO Biosystem PD1-H5229, made in HEK293; also called human PD-L1-his; hPD-L-his
T6 sequence (Q9NZQ7 other isoform, or with tags, fused parts or gaps limits assumed): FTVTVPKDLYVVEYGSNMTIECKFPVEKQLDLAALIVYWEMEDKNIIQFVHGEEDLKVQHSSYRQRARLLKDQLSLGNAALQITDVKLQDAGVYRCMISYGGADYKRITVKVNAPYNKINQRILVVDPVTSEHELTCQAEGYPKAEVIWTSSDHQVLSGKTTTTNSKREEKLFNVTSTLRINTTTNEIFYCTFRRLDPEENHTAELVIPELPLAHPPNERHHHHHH
Experimental: High-binding clear polystyrene 96 well plates (Nunc) were coated with 100 μl/well of a 0.5 μg/ml hPD-L1-his in high pH coating buffer and incubated overnight 4° C. Then plates were washed once on an automatic plate washer using washing buffer (PBS+0.1% Tween 20 (Sigma)). 200 μl of blocking buffer (PBS+1% BSA+1% normal goat serum+0.05% Tween-20) was added to each well and incubated 2 hours at room temp. Then add serially diluted purified antibodies with dilution buffer (PBS+1% BSA+1% normal goat serum+0.01% Tween-20) and incubate for 1 hour at RT. The plates were then washed 3 times using the method described above. 100 μl/well of a solution of HRP conjugated goat anti-mouse Fc antibody (Abcam) in dilution buffer was then added to each well of the plate. After that the ELISA plates were allowed to incubate for 60 min at RT then plates were washed 3 times with 250 μl/well washing buffer. Finally, 100 μl/well of TMB was added to each well and was terminated using 0.64M H₂SO₄. The plates were read on a Thermo Multiscan FC at 450 nM (see FIG. 3).

T1 sequence (Q9NZQ7 19-238 limits assumed): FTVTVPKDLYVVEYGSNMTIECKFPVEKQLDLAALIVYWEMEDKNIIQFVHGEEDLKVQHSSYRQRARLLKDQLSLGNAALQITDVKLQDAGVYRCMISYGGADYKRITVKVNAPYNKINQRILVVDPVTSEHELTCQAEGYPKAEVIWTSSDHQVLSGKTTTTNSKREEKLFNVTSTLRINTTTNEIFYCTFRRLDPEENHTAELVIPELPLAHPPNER

- IC50 (read off the curve) [1]: ~0.02 µg/mL
- binding result (hPD-L2-Fc): no binding (tested: 2 ug/ml)
- Mean OD450 [2]: 1.53 OD450
- OD450 nM of sample-1 [2]: 1.39 OD450
- OD450 nM of sample-2 [2]: 1.68 OD450
- % of binding of Ab to E58A mutant vs. that to WT PD-L1 [3]: 60.6%
- Mean OD450 [3]: 0.93 OD450
- OD450 nM of sample-1 [3]: 1.18 OD450
- OD450 nM of sample-2 [3]: 0.678 OD450
- binding result [4]: no binding (tested: 20 ug/ml)
- EC50 (read off the curve) [5]: ~0.003 µg/mL
B1: 26F5 (antibody, V domains shown)
VH: QVQLQQPGAELVKPGASVKLSCKASGYTFPSYWMHWMKQRPGQGLEWIGMIQPSTSGTIYNERFKNQVTLTVDKSSSTAYMQLSSQTSEDSAVYYCARGTGTVDYFDYWGQGTTLTVSS
VL: DIVLTQSPASLAVSLGQRATISCRASESVDSYGNSFIHWYQQKPGQPPKLLIHRASNLESGIPATFSGSGSRTDFTLTINPVEADDVATYYCQQSKEDPYTFGGGTKLEIK
notes: Mouse monoclonal from hybridoma; also called mouse monoclonal antibody 26F5
